Columns and labels:
[1] = molecular target: T1, Cx43 hemichannels (HCs) in primary mouse chondrocytes (Mus musculus, UniProt P23242); assay: Ethidium bromide dye uptake assay in primary mouse chondrocytes; assay type: cell-based
T1 construct: In primary mouse chondrocytes, ethidium bromide dye uptake assay; endogenous in cells; host or cells: primary mouse chondrocytes

[2] = tested on: post-traumatic OA model (DMM) in male C57BL/6 mice; assay: DMM OA model: immunohistochemistry of Col X and MMP13 in articular cartilage; assay type: in vivo, mouse
Protocol: Destabilization of the medial meniscus (DMM) surgery was performed on the right knee joint of mice (Glasson S S, et al. Osteoarthritis and cartilage. 2007; 15(9):1061-9). Briefly, a 3 mm longitudinal incision over the distal patella to proximal tibial plateau was made. The joint capsule immediately medial to the patellar tendon was incised with a #15 blade and the joint capsule opened with micro-iris scissors. Blunt dissection of the fat pad over the intercondylar area was then performed to expose the intercondylar region, providing visualization of the meniscotibial ligament of the medial meniscus. Mild hemorrhage from the fat pad upon blunt dissection was controlled by pressure from absorption spears. Sectioning of medial meniscotibial ligament with micro-surgical knife, with the blade directed proximo-laterally, gave destabilization of the medial meniscus (DMM). Sham surgery was performed with the ligament visualized but not transected. Immunohistochemistry. The ABC (avidin-biotin-peroxidase complex) Immunostaining Assay Kit (Vector Laboratories, PK-6101) was used. Briefly, bone tissue sections were antigen unmasked using sodium citrate buffer (pH 6.0) at 65° C. for 2 h for MMP13 staining and trypsin digestion buffer (pH 7.8) at 37° C. for 30 min for collagen X staining. Bone tissue sections were then treated with goat normal serum for 20 min at room temperature to block nonspecific background staining. Tissue sections were stained with anti-MMP13 polyclonal antibody (1:200 dilution, Abcam, ab39012), or labeled with anti-collagen X monoclonal antibody (1:100 dilution, Thermo Fisher, 14-9771-82) at 4° C. overnight. Then, the sections were incubated for 30 min with biotin-labeled secondary antibody and VECTASTAIN ABC Reagent for 30 min Samples were washed in PBS buffer and developed in DAB (SK4100) chromogen solution (Vector Laboratories, Burlingame, CA, USA). Tissues were then counterstained with VECTOR Hematoxylin (H-3401) for 5 min at room temperature. Slides were then dehydrated, cleared, and mounted. Sections were photographed using the Keyence microscope (BZ-X710, Keyence, Osaka, Japan). The percentage of MMP13 or Col X-positive chondrocytes were quantified using NIH Image J software.

[3] = tested on: post-traumatic OA model (DMM) in male C57BL/6 mice; assay: DMM OA model: Von Frey filament test (paw withdrawal threshold); assay type: in vivo, mouse
Protocol: (§1) Destabilization of the medial meniscus (DMM) surgery was performed on the right knee joint of mice (Glasson S S, et al. Osteoarthritis and cartilage. 2007; 15(9):1061-9). Briefly, a 3 mm longitudinal incision over the distal patella to proximal tibial plateau was made. The joint capsule immediately medial to the patellar tendon was incised with a #15 blade and the joint capsule opened with micro-iris scissors. Blunt dissection of the fat pad over the intercondylar area was then performed to expose the intercondylar region, providing visualization of the meniscotibial ligament of the medial meniscus. Mild hemorrhage from the fat pad upon blunt dissection was controlled by pressure from absorption spears. Sectioning of medial meniscotibial ligament with micro-surgical knife, with the blade directed proximo-laterally, gave destabilization of the medial meniscus (DMM). Sham surgery was performed with the ligament visualized but not transected.
Animal behavioral tests. The paw withdraw threshold was measured using von Frey filaments 0.007 to 2. Mice were placed in acrylic chambers (5.5×10 cm) suspended above a wire mesh grid and allowed to acclimatize to the testing apparatus for 30 minutes prior to experiments. When the mouse was not moving the von Frey filaments were pressed against the plantar surface of the paw until the filament buckled and held for a maximum of 3 seconds. A positive response was noted if the paw was sharply withdrawn on application of the filament. Flinching immediately upon removal of the filament was also considered a positive response (Chaplan S R, et al. Journal of neuroscience methods. 1994; 53(1):55-63; and Bonin R P, et al. Molecular pain. 2014; 10:26). Testing began with filament number 0.4 and progressed according to an up-down method.

[4] = tested on: post-traumatic OA model (DMM) in male C57BL/6 mice; assay: DMM OA model: open field test; assay type: in vivo, mouse
Protocol: as §1
Spontaneous locomotor activity was analyzed using the open-field test. Mice were placed into the center of a chamber 25×25×25 cm to allow free exploration. The experiments were performed for 10 minutes. Total travel distance, and immobility time were measured by computerized analysis. Mice behavior was recorded, and videos were analyzed by use of ANY-maze behavior tracking software (Stoelting Co., Wood Dale, IL, USA).

[5] = single i.p. injection, eight weeks after DMM, vs saline
[6] = 4 weeks after DMM, vs saline group

T1 sequence (P23242 whole entry): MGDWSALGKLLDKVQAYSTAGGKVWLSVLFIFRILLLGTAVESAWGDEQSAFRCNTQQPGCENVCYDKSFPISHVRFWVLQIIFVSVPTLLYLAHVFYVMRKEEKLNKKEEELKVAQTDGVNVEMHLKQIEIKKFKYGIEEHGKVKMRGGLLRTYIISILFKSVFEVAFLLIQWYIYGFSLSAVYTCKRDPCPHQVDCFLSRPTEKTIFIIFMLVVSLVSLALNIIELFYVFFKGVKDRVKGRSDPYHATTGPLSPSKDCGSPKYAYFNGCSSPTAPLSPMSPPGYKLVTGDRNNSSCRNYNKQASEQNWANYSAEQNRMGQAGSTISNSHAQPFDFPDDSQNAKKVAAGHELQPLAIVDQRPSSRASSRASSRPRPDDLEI

B1: M1 antibody: antibody with variable heavy chain SEQ ID NO: 58 and variable light chain SEQ ID NO: 60; inhibits or blocks opening of Cx43 hemichannel (antibody, V domains shown)
VH: EVQLQQPGAELVKPGASVKLSCKASGYTFTSYYMYWVKQRPGQGLEWIGGINPSNGGTNFNEKFKNKATLTVDKSSSTAYMQLSSLTSEDSAVYYCTREGNPYYTMNYWGQGTSVTVSS
VL: DIVMTQSPSSLSVSAGEKVTMSCKSSQSLLNSGNQKTYLAWYQQKPGQPPKLLIYGASTRESGVPDRFTGSGSGTDFTLTISSVQAEDLAVYYCQNDHSYPFTFGSGTKLEIK
IL-1β treatment induced HCs opening (ethidium bromide dye uptake) [1]: blocked | distribution of MMP13-positive chondrocytes in articular cartilage zones ([2]; DMM mice, eight weeks, saline: three zones): localized mainly in the middle and deep zones | percentage of Col X positive cells ([2]; articular cartilage, eight weeks following DMM, i.p. twice, vehicle-treated 52%): 38% | percentage of MMP-13-positive cells in the articular cartilage ([2]; eight weeks after DMM, i.p. twice, saline-treated 36%): 27% | MMP13 score, ratio of integrated optical density (IOD) to articular cartilage area ([2]; single i.p. injection at 30 minutes post-surgery, eight weeks after DMM, saline 0.17±0.016): 0.10±0.009 | response threshold to mechanical stimuli (von Frey) ([3]; 4 weeks after DMM, vs saline): slight trend of increased response threshold | paw withdrawal threshold relative to saline treated DMM mice ([3]; 8 weeks after DMM, i.p. twice): 121.4% | paw withdraw threshold in sham mice, saline vs antibody ([3]; sham mice at 8 weeks): No difference | paw withdraw threshold to mechanical stimuli (von Frey) [3, 5]: slight trend of increased paw withdraw threshold | distance moved (open field) [4, 6]: trend of increased distance moved | immobility time (open field) [4, 6]: decreased immobility time | pain responses: reductions in distance traveled and elevations in immobility time (open field) ([4]; 8 weeks after DMM, i.p. twice): suppressed these pain responses | distance traveled and immobility time in sham mice, saline vs antibody ([4]; sham mice at 8 weeks): No difference | distance traveled (open field) [4, 5]: significant increase | immobility time (open field) [4, 5]: reduction
